From doi:10.1101/2022.10.10.511565 come the findings set out here.

The experiment deals with Lon-His (C. crescentus) (UniProt B8GX12).
Chain of UniProt B8GX12 (B8GX12 whole entry): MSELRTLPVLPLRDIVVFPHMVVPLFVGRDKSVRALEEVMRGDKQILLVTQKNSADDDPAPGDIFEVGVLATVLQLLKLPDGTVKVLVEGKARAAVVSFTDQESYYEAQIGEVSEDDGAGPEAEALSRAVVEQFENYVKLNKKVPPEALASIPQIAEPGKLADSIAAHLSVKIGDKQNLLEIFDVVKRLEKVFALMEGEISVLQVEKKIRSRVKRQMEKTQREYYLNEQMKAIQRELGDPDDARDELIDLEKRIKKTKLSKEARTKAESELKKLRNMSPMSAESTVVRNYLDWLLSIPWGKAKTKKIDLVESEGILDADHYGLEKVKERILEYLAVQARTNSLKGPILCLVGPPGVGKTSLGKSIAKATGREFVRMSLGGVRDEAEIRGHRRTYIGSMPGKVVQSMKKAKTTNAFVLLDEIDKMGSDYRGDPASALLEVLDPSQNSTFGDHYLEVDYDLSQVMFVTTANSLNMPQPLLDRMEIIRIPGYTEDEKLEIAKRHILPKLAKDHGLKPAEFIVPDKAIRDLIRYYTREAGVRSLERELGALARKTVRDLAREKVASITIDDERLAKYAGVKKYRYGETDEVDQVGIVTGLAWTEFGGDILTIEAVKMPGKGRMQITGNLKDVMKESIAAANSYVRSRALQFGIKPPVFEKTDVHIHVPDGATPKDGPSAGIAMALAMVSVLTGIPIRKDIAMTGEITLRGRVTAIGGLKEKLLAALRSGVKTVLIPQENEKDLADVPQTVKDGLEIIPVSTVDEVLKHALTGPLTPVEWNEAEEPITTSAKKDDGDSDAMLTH

For the substance His-SciP (natural protein), the Km of His-SciP degradation by Lon-His (0.05 µM hexamer), without LarA was found to be 9.3 µM.
